Measured values published in publication PMC10692205, “Pyroptosis inhibiting nanobodies block Gasdermin D pore formation” (Nature Communications, 2023).
Values belong to the binder of their own block, whether it stands above or below them.

Key:
[1] = target: T1, human wild-type, full length Gasdermin D (GSDMD 1-484), chemically biotinylated (Homo sapiens (Human)., UniProt P57764, chemically biotinylated (ChromaLink Biotin), approximately 2 biotins per molecule); assay: SPR; Biacore 8K; chemically biotinylated full length GSDMD captured on Series S Sensor Chip CAP; nanobodies injected as analytes, multi-cycle kinetics (VHH-1, -2, -3, -5: 0.5-32 nM; VHH-4, -6: 64-4096 nM); 25 °C; 20 mM HEPES pH 8.0, 200 mM NaCl, 5 mM DTT, 0.05% Tween20; flow 30 µl/min; association 120 s, dissociation 300 s; 1:1 binding model; settings: both partners purified
T1 construct: human Gasdermin D (GSDMD), wild type, full length, residues 1-484; also called human GSDMD wt, f.l; hGSDMD; source: E. coli Rosetta (DE3), purified (Ni-NTA, SUMO cleavage by ULP1, second Ni-NTA, SEC S200); chemically biotinylated (ChromaLink Biotin Labeling kit); not shown: His6-SUMO, N-terminal, cleaved

[2] = target: T2, chemically biotinylated full length human Gasdermin D (GSDMD) (Homo sapiens (Human)., UniProt P57764, chemically biotinylated (ChromaLink Biotin), approximately 2 biotins per molecule; sites not stated); assay: SPR; chemically biotinylated GSDMD captured on a Series S Sensor Chip CAP (biotin capture kit); nanobodies injected as analytes, multi-cycle kinetics, 120 s association, 300 s dissociation, 1:1 binding model; 25 °C; 20 mM HEPES pH 8.0, 200 mM NaCl, 5 mM DTT, 0.05% Tween20; settings: both partners purified
T2 construct: human Gasdermin D, wild-type, full length, residues 1-484; also called chemically biotinylated GSDMD; not shown: His6, N-terminal, cleaved; SUMO, N-terminal, cleaved

[3] = target: T3, human wild-type, full length Gasdermin D (GSDMD) 1-484 (Homo sapiens (Human)., UniProt P57764); assay: cell-based or functional assay
[4] = target: T3, human wild-type, full length Gasdermin …; assay: nanoDSF thermal shift; nanobodies titrated to GSDMD (5 µM) in increasing concentrations; heated 20 to 90 °C at 1.5 °C/min; fluorescence at 330 and 350 nm; settings: both partners purified
[5] = target: human wild-type, full length Gasdermin D (GSDMD 1-484), chemically biotinylated (human) (UniProt P57764); assay: SPR; Biacore 8K; chemically biotinylated full length GSDMD captured on Series S Sensor Chip CAP; nanobodies injected as analytes, multi-cycle kinetics (VHH-1, -2, -3, -5: 0.5-32 nM; VHH-4, -6: 64-4096 nM); 25 °C; 20 mM HEPES pH 8.0, 200 mM NaCl, 5 mM DTT, 0.05% Tween20; flow 30 µl/min; association 120 s, dissociation 300 s; 1:1 binding model
[6] = target: T4, chemically biotinylated full length human Gasdermin D (GSDMD) (human, UniProt P57764 1-484, chemically biotinylated (ChromaLink Biotin), approximately 2 biotins per molecule; sites not stated); assay: SPR
T4 chain: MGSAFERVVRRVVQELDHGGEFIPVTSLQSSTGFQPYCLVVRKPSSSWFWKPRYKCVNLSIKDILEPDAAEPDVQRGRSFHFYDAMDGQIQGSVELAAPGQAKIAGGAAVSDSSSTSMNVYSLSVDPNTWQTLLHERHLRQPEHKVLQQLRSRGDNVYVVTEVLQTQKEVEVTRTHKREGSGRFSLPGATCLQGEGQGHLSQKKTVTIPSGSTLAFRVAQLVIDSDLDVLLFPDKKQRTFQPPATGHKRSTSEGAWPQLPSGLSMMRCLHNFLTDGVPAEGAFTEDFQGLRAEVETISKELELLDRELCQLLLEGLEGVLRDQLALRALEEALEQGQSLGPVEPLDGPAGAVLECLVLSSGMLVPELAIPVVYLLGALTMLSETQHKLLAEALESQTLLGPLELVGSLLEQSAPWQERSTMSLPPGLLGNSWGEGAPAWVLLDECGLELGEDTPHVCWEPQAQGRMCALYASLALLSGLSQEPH

[7] = target: T5, GSDMD_(Δ184-194/Δ247-272) (human, UniProt P57764, Δ184-194 | Δ247-272); assay: SEC-MALS; GSDMD_(Δ184-194/Δ247-272) mixed with VHH GSDMD-2, VHH GSDMD-6 or both at equimolar concentrations (189 µM); Superose 6 10/300 GL in GSDMD-SEC buffer; settings: both partners purified
T5 construct: human Gasdermin D 1-484 with residues 184-194 (in the NTD) and 247-272 (linker between the domains) deleted; also called GSDMD crystallization construct; source: E. coli Rosetta (DE3), purified (Ni-NTA, ULP1 cleavage, second Ni-NTA, SEC); not shown: His6, N-terminal, cleaved; SUMO, N-terminal, cleaved

B3: VHH_(GSDMD-1) (VHH)
VHH: QVQLVESGGALVQPGGSLRLSCSASGFTFSKYLMSWYRQAPGKERELVATITTAGGNTNYADSVKGRFTISRDNAKNTVYLQMNSLKPEDTAVYYCKASGGTIRTVNETYWGQGTQVTVSS
notes: also called VHH-1; source: E. coli WK6, periplasmic expression (pHEN6), purified (Ni-NTA, SEC S75)
Kd [1]: 0.305 nM
koff [1]: 0.00198 s⁻¹
kon [1]: 6.48e+06 M⁻¹ s⁻¹

B5: VHH_(GSDMD-4) (VHH)
VHH: QVQLVESGGGLVQPGGSLRLSCAASGFTLDRHAIAWFRQAPGLEREGVVCTSSSGAITNTADSVKGRFTISRDDAKNTVYLQMNSLKPEDTAIYYCAVRELWTVQPICEPRPRAYAYWGQGTQVTVSS
notes: source: E. coli WK6, periplasmic expression (pHEN6), purified (Ni-NTA, gel filtration)
binding result [4]: binds
koff [5]: 0.00161 s⁻¹
kon [5]: 2890 M⁻¹ s⁻¹
Kd [6]: 559 nM

B6: VHH_(GSDMD-2) (VHH)
VHH: QVQLVESGGGLVQPGGSLRLSCVDSRSWINVYGANWYRQAPGKERELVAALTSGGTTNYADSVKGRFTISRDNAKNTVYLQMRDLKPEDTAVYYCNLERYTGSSVYPWGQGTQVTVSS
notes: also called VHH-2; source: E. coli WK6, periplasmic expression (pHEN6), purified (Ni-NTA, SEC S75)
Kd [1]: 0.637 nM
koff [1]: 0.000951 s⁻¹
kon [1]: 1.49e+06 M⁻¹ s⁻¹

B7: VHH_(GSDMD-2) (VHH)
VHH: B6 VHH
notes: CDR1, -2, -3 of 10, 9 and 12 residues; disulfide C22-C95; also called VHH_(GSDMD-2)-LPETG-His; source: E. coli WK6, periplasmic expression (pHEN6), purified (Ni-NTA, gel filtration); not shown: LPETG, C-terminal, kept; His tag, C-terminal, kept
stoichiometry N [7]: 1
Kd [2]: 0.64 nM
IC50 of calcein release through GSDMD pores in the liposome leakage assay (nanobody 10 nM to 10 µM, 0.5 µM full length GSDMD, caspase-4, 180 min); what is blocked: formation of functional GSDMD pores [3]: 650 nM

B8: VHH_(GSDMD-3) (VHH)
VHH: QVQLVETGGGLVQPGGSLRLSCAASGFTLDIYNMGWFRQAPGKEREGVSCISSRYGTSTYYADSVKGRFTISRDNAKNTVYLQMNNLKPEDTAVYYCATVSWRFTTNQDVCLTPSVSGYWGQGTQVTVSS
notes: also called VHH-3; source: E. coli WK6, periplasmic expression (pHEN6), purified (Ni-NTA, SEC S75)
Kd [1]: 0.551 nM
koff [1]: 0.00154 s⁻¹
kon [1]: 2.8e+06 M⁻¹ s⁻¹

The remaining lines, values ahead:

Kd [1]: 0.494 nM
koff [1]: 0.00149 s⁻¹
kon [1]: 3.02e+06 M⁻¹ s⁻¹
B1: VHH_(GSDMD-5) (VHH)
VHH: QVQLVETGGGLVQPGGSLRLSCAASGFVFSINPMNWYRQAPGKERELVAYISMRGSTTNYADSVKGRFIISRDNAKNTLYLQMNSLKPEDTAVYYCNAPSRSVWGQGTQVTVSS
notes: also called VHH-5; source: E. coli WK6, periplasmic expression (pHEN6), purified (Ni-NTA, SEC S75)

Kd [2]: 0.49 nM
B2: VHH_(GSDMD-5) (VHH)
VHH: B1 VHH
notes: as for B5

Kd [2]: 0.31 nM
IC50 of calcein release through GSDMD pores in the liposome leakage assay (nanobody 10 nM to 10 µM, 0.5 µM full length GSDMD, caspase-4, 180 min); what is blocked: formation of functional GSDMD pores [3]: 220 nM
B4: VHH_(GSDMD-1) (VHH)
VHH: B3 VHH
notes: raised by immunization of an alpaca with full-length recombinant human GSDMD; also called VHH_(GSDMD-1)-LPETG-His; source: E. coli WK6, periplasmic expression (pHEN6), purified (Ni-NTA, gel filtration); not shown: LPETG, C-terminal, kept; His tag, C-terminal, kept

Kd [2]: 0.55 nM
B9: VHH_(GSDMD-3) (VHH)
VHH: B8 VHH
notes: as for B5

Kd [1]: 143 nM
koff [1]: 0.0201 s⁻¹
kon [1]: 141000 M⁻¹ s⁻¹
B10: VHH_(GSDMD-6) (VHH)
VHH: QVQLVETGGGLVQPGGSLRLSCTASGFIFSANQMNWVRQAPGKGLEWLSGISTRGDTTSYADSVKGRFTISRDNAKNTLYLQMNSLQPDDTAVYFCARVCIRGPEPKLRCDDWGQGTQVTVSS
notes: also called VHH-6; source: E. coli WK6, periplasmic expression (pHEN6), purified (Ni-NTA, SEC S75)

stoichiometry N [7]: 1
IC50 of calcein release through GSDMD pores in the liposome leakage assay (nanobody 10 nM to 10 µM, 0.5 µM full length GSDMD, caspase-4, 180 min); what is blocked: formation of functional GSDMD pores [3]: 1300 nM
B11: VHH_(GSDMD-6) (VHH)
VHH: B10 VHH
notes: CDR3 of 15 residues with an additional disulfide C100-C110; also called VHH_(GSDMD-6)-HA-His; source: E. coli WK6, periplasmic expression (pHEN6), purified (Ni-NTA, gel filtration); not shown: HA, C-terminal, kept; His tag, C-terminal, kept
